Experimental findings from publication doi:10.1101/2025.02.13.638105 are described below.

Like-named read-outs stand apart in the source and are kept apart here.

Assay [1] deals with human recombinant wildtype neurofibromin isoform I (human) (UniProt P21359). Briefly: cryo-EM structure.
Assay [2] has the same target. Briefly: cryo-EM structure. The source holds these as a separate data set.

One may read the stoichiometry N as a count of units in the complex or per binding partner.

Consider “human recombinant wildtype neurofibromin isoform I, P21359-2 1-2818”, for which, in assay [1], the dimers per tetramer (counts of single particles) was 4 and the stoichiometry N is 4. In addition, the stoichiometry N in assay [2] turned out to be 2.
